# Measured values as given in PMC12311110.
# Tests used:
# [1] = molecular target: hRetromer (recombinant Retromer trimer) (human) (UniProt Q96QK1); assay: ITC; Microcal PEAQ-ITC, 25 °C; 1 mM peptide or 530 µM TBC1D13 titrated into 14 µM Retromer; single-site model; mean of triplicate titrations
# endogenous VPS26 = endogenous VPS26 (UniProt O75436); assay: GFP-based co-IP, western blot band quantification; conditions: HEK293T cells, transient transfection; normalised to GFP band intensity; n = 3; parent: est. 100; read off a plot
# Chain of recombinant full-length human TBC1D13 (Q9NVG8 whole entry): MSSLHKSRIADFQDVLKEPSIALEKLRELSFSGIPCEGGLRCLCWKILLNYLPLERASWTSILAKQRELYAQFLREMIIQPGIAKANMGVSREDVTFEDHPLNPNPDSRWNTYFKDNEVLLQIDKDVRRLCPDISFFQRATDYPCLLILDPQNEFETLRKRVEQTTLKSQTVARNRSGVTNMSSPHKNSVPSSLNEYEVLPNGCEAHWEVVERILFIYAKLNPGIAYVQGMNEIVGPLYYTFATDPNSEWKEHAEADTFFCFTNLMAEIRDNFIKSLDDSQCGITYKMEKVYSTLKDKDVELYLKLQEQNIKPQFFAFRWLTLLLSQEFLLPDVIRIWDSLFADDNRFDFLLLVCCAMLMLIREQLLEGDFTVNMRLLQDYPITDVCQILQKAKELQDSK
Substance,Kd [1] [µM],dH [1] [kcal/mol],percent of parent (relative intensity (WT = 100)) (endogenous VPS26)
human DENND4C peptide 1189-1206,15.4,-10.1,
GFP-VPS29 wild-type (from UniProt Q9UBQ0) L152E,,,110
recombinant full-length human TBC1D13 (from UniProt Q9NVG8 1-400) (natural protein),6.3,-8.1,
VPS35-GFP WT (from UniProt Q96QK1) I218D,,,120
GFP-VPS29 wild-type (from UniProt Q9UBQ0) V174D,,,170
